The target of the series is T1, PUF4 RNA-binding domain (Saccharomyces cerevisiae, UniProt P25339 537-888).
T1 sequence: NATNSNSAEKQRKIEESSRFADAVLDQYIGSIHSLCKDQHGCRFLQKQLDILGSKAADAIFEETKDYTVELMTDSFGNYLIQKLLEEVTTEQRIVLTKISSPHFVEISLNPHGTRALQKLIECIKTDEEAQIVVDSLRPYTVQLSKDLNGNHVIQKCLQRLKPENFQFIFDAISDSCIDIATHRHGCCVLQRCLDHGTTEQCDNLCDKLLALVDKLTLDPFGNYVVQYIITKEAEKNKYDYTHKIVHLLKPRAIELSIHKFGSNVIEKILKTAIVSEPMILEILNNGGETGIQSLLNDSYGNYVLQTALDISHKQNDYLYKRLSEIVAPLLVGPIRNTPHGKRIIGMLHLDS
Put plainly: Mg; RNA-MaP; 20 mM Na-HEPES pH 7.4, 30 mM KOAc, 0.75 mM MgCl2, 0.1% Tween-20, 5% glycerol, 0.1 mg/mL BSA, 2 mM DTT; 25 C; 0.0125-409.6 nM protein. To be noted: tags: N-His6-TEV cleaved; C-SNAP kept, Cy3B-labelled; label: tethered on chip by stalled RNA polymerase.

Residue numbers refer to the chain shown, from its start. Names and notes keep the numbering of the source.

B1: Ic_S2_P5E.1_K5.1_C5.1_H5.1_A5.1_[T5A]_[T6A]_F5.1_[T8C]_[T9A]_[A10C]_T5.1 (ssRNA)
RNA: UUUGAUUAAUAUGAUAUCGUUCUUUCUUGUAAAACACUUCUUUCUCGAUAUCAUAUUAAUCUUU
With B1, the affinity, expressed as Kd, was 128 nM.

B2: Ic_S2_P5E.1_K5.1_C5.1_H5.1_A5.1_[T5A]_[T6C]_[A7T]_F5.1_[T8A]_[T9A]_T5.1 (ssRNA)
RNA: B1 RNA with A33C, A34U, C35A, C37A
As for B2, the Kd is 129 nM.

B3: Ic_S2_P5E.1_K5.1_C5.1_H5.1_A5.1_[T5A]_[T6A]_[A7T]_F5.1_[T9A]_T5.1 (ssRNA)
RNA: B1 RNA with A34U, C35U, C37A
For the molecule B3, binding was characterised by a dissociation constant (Kd) of 2.21 nM.

B4: Ic_S2_P5E.1_K5.1_C5.1_H5.1_A5.1_[A7C]_F5.1_[T9G]_[A10G]_T5.1 (ssRNA)
RNA: B1 RNA with A32U, A33U, A34C, C35U, A36G, C37G
Molecule B4 showed a Kd of 23.5 nM.

B5: Ic_S2_P5E.1_K5.1_C5.1_H5.1_A5.1_[T6C]_[A7C]_F5.1_[T9A]_[A10T]_T5.1 (ssRNA)
RNA: B1 RNA with A32U, A33C, A34C, C35U, C37U
In turn, B5 returned a Kd of 1.14 nM.

B6: Ic_S2_P5E.1_K5.1_C5.1_H5.1_A5.1_[T5C]_[T6A]_[A7T]_F5.1_[T8C]_[T9G]_[A10G]_T5.1 (ssRNA)
RNA: B1 RNA with A32C, A34U, A36G, C37G
B6: binding was characterised by a dissociation constant (Kd) of 315 nM. This Kd is about 280-fold higher than that of the molecule before.

B7: Ic_S2_P5E.1_K5.1_C5.1_H5.1_A5.1_[T5G]_[T6C]_[A7T]_F5.1_[T8C]_[T9G]_[A10T]_T5.1 (ssRNA)
RNA: B1 RNA with A32G, A33C, A34U, A36G, C37U
B7 had a Kd of 275 nM.

B8: Ic_S2_P5E.1_K5.1_C5.1_H5.1_A5.1_[T5G]_[A7C]_F5.1_[T9C]_[A10G]_T5.1 (ssRNA)
RNA: B1 RNA with A32G, A33U, A34C, C35U, A36C, C37G
B8: the affinity, expressed as Kd, was 706 nM. Against the preceding molecule, the Kd is about 2.6-fold higher.

B9: Ic_S2_P5E.1_K5.1_C5.1_H5.1_A5.1_[T6C]_[A7C]_F5.1_[T8A]_[T9G]_[A10C]_T5.1 (ssRNA)
RNA: B1 RNA with A32U, A33C, A34C, C35A, A36G
Regarding B9, the affinity, expressed as Kd, was 1560 nM.

B10: Ic_S2_P5E.1_K5.1_C5.1_H5.1_A5.1_[T5G]_[T6C]_[A7C]_F5.1_[T8C]_[T9A]_[A10T]_T5.1 (ssRNA)
RNA: B1 RNA with A32G, A33C, A34C, C37U
The molecule B10 had a Kd of 819 nM.

B11: Ic_S2_P5E.1_K5.1_C5.1_H5.1_A5.1_[T5G]_[T6C]_[A7C]_F5.1_[T9C]_T5.1 (ssRNA)
RNA: B1 RNA with A32G, A33C, A34C, C35U, A36C, C37A
B11 yielded a Kd of 74.8 nM.

B12: Ic_S2_P5E.1_K5.1_C5.1_H5.1_A5.1_[T5A]_[T6C]_[A7G]_F5.1_[T8G]_[T9C]_[A10C]_T5.1 (ssRNA)
RNA: B1 RNA with A33C, A34G, C35G, A36C
In the case of B12, the Kd was more than 2300 nM.

B13: Ic_S2_P5E.1_K5.1_C5.1_H5.1_A5.1_[T6G]_[A7T]_F5.1_[T8A]_[T9A]_T5.1 (ssRNA)
RNA: B1 RNA with A32U, A33G, A34U, C35A, C37A
As for B13, the Kd amounted to 53.7 nM.

B14: Ic_S2_P5E.1_K5.1_C5.1_H5.1_A5.1_[T6C]_[A7G]_F5.1_[T8C]_[T9C]_[A10T]_T5.1 (ssRNA)
RNA: B1 RNA with A32U, A33C, A34G, A36C, C37U
B14 registered a Kd of 463 nM.

B15: Ic_S2_P5E.1_K5.1_C5.1_H5.1_A5.1_[T5C]_[A7T]_F5.1_[T8C]_[T9C]_[A10C]_T5.1 (ssRNA)
RNA: B1 RNA with A32C, A33U, A34U, A36C
With B15, the Kd stood at 149 nM.

B16: Ic_S2_P5E.1_K5.1_C5.1_H5.1_A5.1_[T6G]_[A7T]_F5.1_[T8C]_[T9A]_[A10T]_T5.1 (ssRNA)
RNA: B1 RNA with A32U, A33G, A34U, C37U
B16 showed a Kd of 64 nM.

B17: Ic_S2_P5E.1_K5.1_C5.1_H5.1_A5.1_[T6C]_[A7T]_F5.1_[T8A]_[T9C]_[A10G]_T5.1 (ssRNA)
RNA: B1 RNA with A32U, A33C, A34U, C35A, A36C, C37G
In turn, B17 registered a Kd of 26.1 nM.

B18: Ic_S2_P5E.1_K5.1_C5.1_H5.1_A5.1_[T5A]_F5.1_[T9G]_[A10G]_T5.1 (ssRNA)
RNA: B1 RNA with A33U, C35U, A36G, C37G
For the molecule B18, binding was put at a Kd of 75.2 nM.

B19: Ic_S2_P5E.1_K5.1_C5.1_H5.1_A5.1_[T5C]_[T6A]_[A7G]_F5.1_[T9G]_[A10C]_T5.1 (ssRNA)
RNA: B1 RNA with A32C, A34G, C35U, A36G
As for B19, the dissociation constant Kd was found to be 9.13 nM.

B20: Ic_S2_P5E.1_K5.1_C5.1_H5.1_A5.1_[T5C]_[T6C]_[A7T]_F5.1_[T8A]_[A10T]_T5.1 (ssRNA)
RNA: B1 RNA with A32C, A33C, A34U, C35A, A36U, C37U
Take B20: the Kd was determined as 9.6 nM.

B21: Ic_S2_P5E.1_K5.1_C5.1_H5.1_A5.1_[T5A]_[A7T]_F5.1_[T8A]_[A10C]_T5.1 (ssRNA)
RNA: B1 RNA with A33U, A34U, C35A, A36U
As for B21, binding was characterised by a dissociation constant (Kd) of 113 nM.

B22: Ic_S2_P5E.1_K5.1_C5.1_H5.1_A5.1_[T5C]_F5.1_[T8A]_[T9C]_[A10C]_T5.1 (ssRNA)
RNA: B1 RNA with A32C, A33U, C35A, A36C
As for B22, binding was characterised by a dissociation constant (Kd) of 228 nM.

B23: Ic_S2_P5E.1_K5.1_C5.1_H5.1_A5.1_[T5C]_[A7C]_F5.1_[T9C]_[A10T]_T5.1 (ssRNA)
RNA: B1 RNA with A32C, A33U, A34C, C35U, A36C, C37U
The molecule B23 gave a Kd of 13.5 nM. In turn, UCUCUUUAUAUAUUUUCUCUU (ssRNA) [Ib_S1_P4E.1_K4.1_C4.1_H4.1_[G2A]_A4.1_F4.1_[A9T]_T4.1] showed a Kd of 413 nM. The molecule UCUCUUUUUAUAUUGUCUCUU (ssRNA) [Ib_S1_P4E.1_K4.1_C4.1_H4.1_[G2T]_A4.1_F4.1_[A9G]_T4.1] showed a Kd of more than 2300 nM. The result for UCUCUUCGUAUAUUUUCUCUU (ssRNA) [Ib_S1_P4E.1_K4.1_C4.1_H4.1_[T1C]_A4.1_F4.1_[A9T]_T4.1] reads 1420 nM.

As for UCUCUUUAUAUAUUGUCUCUU (ssRNA) [Ib_S1_P4E.1_K4.1_C4.1_H4.1_[G2A]_A4.1_F4.1_[A9G]_T4.1], binding was put at a Kd of 334 nM.
